{"source": "paper PMC9425029", "about": "“Secretagogin is a Ca^2+-dependent stress-responsive chaperone that may also play a role in aggregation-based proteinopathies” (The Journal of Biological Chemistry, 2022)", "target": "the molecule itself", "assay": "SAXS; oxidizing conditions (100 μM H2O2), SCGN about 5-15 mg/ml, without or with 8 mM Ca2+; 50 mM Tris pH 7.5, 100 mM KCl"}
{"protein": "Secretagogin (mouse SCGN) (natural protein, UniProt Q91WD9 1-276, looked up, secretagogin, mouse, cloned in pET21b; Used Ca2+-free (apo) or with Ca2+ (holo); the assays tell them apart; also called apo-SCGN; holo-SCGN; source: E. coli BL21-DE3 (pET21b), purified (Ni-NTA-Sepharose, size-exclusion chromatography), decalcified with EDTA) MDNARRKTPARLDAACFWQIWQRFDKEEKGYIRETELDAFFDHLLAKSGTEDTLMEENVQKVKEQLMTSHNVSKEGRILMKELASMFLSEDENFLLFFRLETPLDNSVEFMQIWRKYDADSSGFISAAELCNFLRDLFLHHKKNISEAELEEYTSTMMKIFDKNKDGRLDLNDLARILALQENFLLQFKMDASSTEERKRDFEKIFAHYDVSKTGALEGPEVDGFVKDMMELVQPSISGVDLDKFREILLRHCDVNKDGKIQKSELALCLGLKINP", "values": [{"measurement": "binding result", "result": "binds"}]}
